The values below come from publication PMC4558366.

Experiment in all cases: ITC
Background: In ITC the heat of successive injections is recorded.

The target of assay [1] is T1, UHRF1_(600-687) (human), Q96T88.
T1 chain: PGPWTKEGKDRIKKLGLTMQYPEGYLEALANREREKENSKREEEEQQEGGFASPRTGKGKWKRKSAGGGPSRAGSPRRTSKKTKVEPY

The target in assay [2] is T2, UHRF1_(647-678) (human), Q96T88.
T2 chain: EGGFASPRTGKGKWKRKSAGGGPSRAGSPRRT

For assay [3], the target named is T3, UHRF1_(647-687) K659E (human), Q96T88.
T3 chain: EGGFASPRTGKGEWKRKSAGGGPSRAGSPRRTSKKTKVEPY

Assay [4] deals with T4, UHRF1_(SRA-RING) (residues 419-806) (human), Q96T88.
T4 chain: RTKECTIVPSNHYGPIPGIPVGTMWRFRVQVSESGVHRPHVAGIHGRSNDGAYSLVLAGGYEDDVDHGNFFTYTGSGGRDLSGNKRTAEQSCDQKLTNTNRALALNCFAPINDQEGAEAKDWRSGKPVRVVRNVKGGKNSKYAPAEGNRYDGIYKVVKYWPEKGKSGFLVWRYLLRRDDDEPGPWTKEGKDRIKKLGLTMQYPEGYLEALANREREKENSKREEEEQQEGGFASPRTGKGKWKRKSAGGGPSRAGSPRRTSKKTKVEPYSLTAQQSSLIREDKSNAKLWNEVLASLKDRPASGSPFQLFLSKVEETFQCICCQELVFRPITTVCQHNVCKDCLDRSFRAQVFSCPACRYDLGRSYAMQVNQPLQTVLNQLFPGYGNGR

The target in assay [5] is T5, UHRF1_(TTD-RING) (residues 138-806) (human), Q96T88.
T5 chain: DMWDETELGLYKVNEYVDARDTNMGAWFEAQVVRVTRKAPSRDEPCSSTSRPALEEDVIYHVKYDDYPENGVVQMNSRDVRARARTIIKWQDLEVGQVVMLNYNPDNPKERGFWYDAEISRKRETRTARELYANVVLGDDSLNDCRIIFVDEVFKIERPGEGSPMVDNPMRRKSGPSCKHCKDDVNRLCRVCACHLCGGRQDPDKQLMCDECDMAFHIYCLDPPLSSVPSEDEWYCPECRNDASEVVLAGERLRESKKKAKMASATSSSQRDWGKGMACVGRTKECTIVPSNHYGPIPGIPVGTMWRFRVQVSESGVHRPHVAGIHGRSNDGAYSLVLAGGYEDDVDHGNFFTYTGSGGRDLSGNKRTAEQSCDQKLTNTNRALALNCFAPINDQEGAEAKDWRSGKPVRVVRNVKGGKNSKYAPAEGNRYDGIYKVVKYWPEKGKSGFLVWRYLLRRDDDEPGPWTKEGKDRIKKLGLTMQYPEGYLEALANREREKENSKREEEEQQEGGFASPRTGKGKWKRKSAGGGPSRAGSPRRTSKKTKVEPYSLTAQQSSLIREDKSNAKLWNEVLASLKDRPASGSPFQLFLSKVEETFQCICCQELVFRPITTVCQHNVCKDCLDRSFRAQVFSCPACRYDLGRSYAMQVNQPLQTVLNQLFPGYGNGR

B1: USP7 UBL1-2 (first two UBL domains of USP7) (domain or fragment)
chain: EAHLYMQVQIVAEDQFCGHQGNDMYDEEKVKYTVFKVLKNSSLAEFVQSLSQTMGFPQDQIRLWPMQARSNGTKRPAMLDNEADGNKTMIELSDNENPWTIFLETVDPELAASGATLPKFDKDHDVMLFLKMYDPKTRSLNYCGHIYTPISCKIRDLLPVMCDRAGFIQDTSLILYEEVKPNLTERIQDYDVSLDKALDELMDGDIIVFQKDDPENDNSELPTAKEYFRDLYH
modifications: not checked
On to B1, for which the Kd (usually the concentration at which binding is half-saturated) was determined as 1420 nM in assay [1], 1520 nM in assay [2], 1300 nM in assay [4] and 27.2 µM in assay [5]. Moreover, the fold reduction of binding affinity against wild type in assay [3] came to 38 fold.
